The source of these data is the supplement of paper PMC6755084.

B1: minF1; the commonest letter at each place (parent)
chain: GAGACCGCAACTGAAAAGTTGTTATCAGAAATGGATGGGTTGAATTTCTGCACGTAGAAGCAAAAGGC

The variants in this data set derive from B1. In words: fraction ligated after 30 min (ligated reads / total reads); higher = more ligase activity. Conditions: with F1*subA RNA substrate (template-directed ligation), 42 °C. In outline: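 RNAs for minimized ligase ribozyme variants were transcribed with T7 from PCR-amplified oligo-pool templates and purified on gels. Ligated and unligated species were resolved on gels, converted to cDNA with barcoded primers, and read on a MiSeq with core bases filtered at quality ≥30. Fraction ligated per variant is the ratio of ligated reads to total reads.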
Consider C26T A31C, for which the fraction ligated stood at 0.312.
As to C26T A31G, the fraction ligated came out at 0.52.
Then C26T A31T, with 0.404; and G28T T36C, with 0.0288; and G28T T36A, with 0.0434.
As for G28T T36G, the fraction ligated is 0.0726.
Regarding G28A A35G, the fraction ligated is 0.246.
For G28A A35T the value was 0.0165; for G28A A35C, 0.0346.
In the case of G28T A44G, the fraction ligated was 0.759.
Take G28T A44C: the fraction ligated stood at 0.685.
For G28T A44T the value was 0.794; for A29C A35C, 0.00361; for A29C A35G, 0.189.
For A29C A35T the value was 0.012; for C26G A43T, 0.00299; for C26G A43C, 0.00457.
For the variant C26G A43G, the fraction ligated amounted to 0.00467.
With C26G G42A, the fraction ligated is 0.00168.
Consider C26G G42C, for which the fraction ligated amounted to 0.00152.
Then C26G G42T, with 0.00229.
For G28T G42T the value was 0.142.
Then G28T G42A, with 0.359.
For G28T G42C, the fraction ligated is 0.017.
On to G28A A43G, for which the fraction ligated worked out at 0.0763.
Regarding G28A A43T, the fraction ligated was 0.102.
Then G28A A43C, with 0.0816; and A27C A30C, with 0.465; and A27C A30T, with 0.403.
As to A27C A30G, the fraction ligated worked out at 0.759.
For A27T A29C the value was 0.808.
Then A27T A29T, with 0.832; and A27T A29G, with 0.829.
For the variant C26G G28T, the fraction ligated stood at 0.0589.
Consider C26G G28C, for which the fraction ligated came out at 0.0331.
On to C26G G28A, for which the fraction ligated turned out to be 0.0283.
For G28C T36A the value was 0.0306; for G28C T36C, 0.0172; for G28C T36G, 0.0324.
Then A27C T36A, with 0.0988; and A27C T36G, with 0.0955; and A27C T36C, with 0.0483.
Then G28T A31T, with 0.827.
Turning to G28T A31C, the fraction ligated was 0.82.
On to G28T A31G, for which the fraction ligated came out at 0.82.
For C26T G37A the value was 0.00482; for C26T G37C, 0.00325; for C26T G37T, 0.00513.
As to C26G A44C, the fraction ligated amounted to 0.00656.
Regarding C26G A44G, the fraction ligated was 0.0117.
For C26G A44T the value was 0.0283; for A27G G37A, 0.00716; for A27G G37C, 0.00672.
Regarding A27G G37T, the fraction ligated amounted to 0.0232.
For A27T G33A the value was 0.829.
For A27T G33T the value was 0.737.
For A27T G33C, the fraction ligated was determined as 0.822.
Then A27T A44G, with 0.825; and A27T A44T, with 0.827.
On to A27T A44C, for which the fraction ligated was determined as 0.766.
For A27G G34T the value was 0.00742; for A27G G34A, 0.207.
For A27G G34C, the fraction ligated was 0.00194.
For G28C G42A the value was 0.264; for G28C G42C, 0.0102.
Then G28C G42T, with 0.0849; and C26T A29T, with 0.43; and C26T A29C, with 0.39.
Then C26T A29G, with 0.417; and G28C A31C, with 0.664.
G28C A31G: the fraction ligated stood at 0.798.
Then G28C A31T, with 0.814; and G28A T32A, with 0.0454; and G28A T32G, with 0.0134.
G28A T32C: the fraction ligated worked out at 0.0224.
For the variant C26G A30G, the fraction ligated was determined as 0.0544.
On to C26G A30C, for which the fraction ligated was 0.0436.
As for C26G A30T, the fraction ligated came to 0.0435.
Then A27G A29C, with 0.809; and A27G A29G, with 0.797.
As for A27G A29T, the fraction ligated worked out at 0.808.
For the variant C26G T36G, the fraction ligated is 0.00843.
For C26G T36A, the fraction ligated stood at 0.00192.
For C26G T36C the value was 0.00195.
